Reference: patent US5840673, “Insulin-like growth factor binding protein 3 (IGF-BP3) in treatment of p53-related tumors” (Bristol-Myers Squibb Company)

B1: IGF-BP3 Box A (dsDNA)
DNA 1: TCGAGAAAACAAGCCACCAACATGCTTGC
DNA 2: GCAAGCATGTTGGTGGCTTGTTTTCTCGA
B2: IGF-BP3 Box B (dsDNA)
DNA 1: TCGAGAGGAGGGCAAGACCTGCCAAGCCTGGGTA
DNA 2: TACCCAGGCTTGGCAGGTCTTGCCCTCCTCTCGA

Molecular target: p53 (His-tagged, wild type) (Homo sapiens, UniProt P04637 P04637:1-393)
Assay: EMSA; binding potentiated and supershifted by PAb421
Details: tags: His fusion, baculovirus-produced; chain copies: 4

Sequence of p53 (His-tagged, wild type) (P04637 whole entry, one chain of several): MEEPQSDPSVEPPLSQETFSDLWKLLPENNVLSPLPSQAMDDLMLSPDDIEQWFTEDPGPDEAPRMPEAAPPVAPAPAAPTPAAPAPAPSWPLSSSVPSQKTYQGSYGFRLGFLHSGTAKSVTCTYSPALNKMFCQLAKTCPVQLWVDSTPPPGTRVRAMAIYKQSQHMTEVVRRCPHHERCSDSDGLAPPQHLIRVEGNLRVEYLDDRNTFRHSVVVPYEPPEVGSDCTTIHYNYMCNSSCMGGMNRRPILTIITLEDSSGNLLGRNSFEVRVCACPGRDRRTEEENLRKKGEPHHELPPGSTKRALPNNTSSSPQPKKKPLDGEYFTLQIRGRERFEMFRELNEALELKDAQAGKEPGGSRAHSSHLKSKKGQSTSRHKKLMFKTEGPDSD

Binder | binding result
B1 | binds
B2 | binds
